Source: the supplement of paper PMC7877785
± gives the uncertainty stated by the source.

Experiment: self-splicing fitness, log relative to wild type (ln ratio); higher = more splicing; Tetrahymena group I intron in knt gene, E. coli kanamycin selection, DiMSum; sequences stand for … in CUCUCU…GGAGGGAAAAGUUAUCAGGCAUGCACCUGGUAGCUAGUCUUUAAACCAAUAGAUUGCAUCGGUUUAAAAGGCAAGACCGUCAAAUUGCGGGAAAGGGGUCAACAGCCGUUCAGUACCAAGUCUCAGGGGAAACUUUGAGAUGGCCUUGCAAAGGGUAUGGUAAUAAGCUGACGGACAUGGUCCUAACCACGCAGCCAAGUCCUAAGUCAACAGAUCUUCUGUUGAUAUGGAUGCAGUUCACAGACUAAAUGUCGGUCGGGGAAGAUGUAUUCUUCUCAUAAGAUAUAGUCGGACCUCUCCUUAAUGGGAGCUAGCGGAUGAAGUGAUGCAACACUGGAGCCGCUGGGAACUAAUUUGUAUGCGAAAGUAUAUUGAUUAGUUUUGGAGUACUCGUGGUCG
Summary of the method: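 Library with all eight P1ex-region intron nucleotides randomised, intron inside the knt kanamycin-resistance gene on pET-22b(+), in E. coli BL21(DE3). Cells grew overnight at 37°C or 30°C on LB agar with or without 25 μg/mL kanamycin (plus 100 μg/mL carbenicillin, 50 μM IPTG, 0.2% rhamnose), in six replicate transformations. Pooled colonies were amplicon-sequenced on Illumina HiSeq 2500. DiMSum fitness is the error-weighted combination of wild-type-normalised replicate fold changes, kanamycin versus none.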

Sequence | self-splicing fitness (ln) (30 °C) | self-splicing fitness (ln) (37 °C)
GGUUAGCAAUAUUACGCGUU | -1.01 ± 0.17 | -0.358 ± 0.19
GGUUAGCAAUAUUACGCUUG | -2.32 ± 0.15 | -1.82 ± 0.2
GGUUAGCAAUAUUACGGCCA | -0.0519 ± 0.23 | 0.0427 ± 0.2
GGUUAGCAAUAUUACGGCUC | -2.05 ± 0.33 | -0.541 ± 0.46
GGUUAGCAAUAUUACGGCUG | -0.585 ± 0.16 | 0.214 ± 0.28
GGUUAGCAAUAUUACGGUAG | -2.79 ± 0.15 | -2.28 ± 0.2
GGUUAGCAAUAUUACGUAUC | -0.749 ± 0.12 | 0.0936 ± 0.15
GGUUAGCAAUAUUACGUCUU | -0.107 ± 0.093 | 0.227 ± 0.11
GGUUAGCAAUAUUACGUUAC | -2.81 ± 0.19 | -1.47 ± 0.23
GGUUAGCAAUAUUACGUUUG | -4.51 ± 0.34 | -1.42 ± 0.17
GUAAAGCAAUAUUACGAAGU | -1.47 ± 0.077 | -0.327 ± 0.098
GUAAAGCAAUAUUACGACAC | 0.603 ± 0.098 | 0.696 ± 0.12
GUAAAGCAAUAUUACGAGGC | -2.91 ± 0.18 | -2.44 ± 0.24
GUAAAGCAAUAUUACGAGUG | -1.69 ± 0.059 | -0.403 ± 0.08
GUAAAGCAAUAUUACGCACU | 0.0854 ± 0.099 | -0.289 ± 0.12
GUAAAGCAAUAUUACGCGAU | -3.23 ± 0.21 | -1.42 ± 0.19
GUAAAGCAAUAUUACGGACU | -0.753 ± 0.061 | -0.471 ± 0.082
GUAAAGCAAUAUUACGGCAA | -0.0595 ± 0.1 | -0.0616 ± 0.16
GUAAAGCAAUAUUACGGCAC | 0.217 ± 0.12 | 0.134 ± 0.15
GUAAAGCAAUAUUACGGCUG | 0.0741 ± 0.066 | 0.175 ± 0.088
GUAAAGCAAUAUUACGGCUU | -0.183 ± 0.11 | 0.219 ± 0.14
GUAAAGCAAUAUUACGGGCU | -1.69 ± 0.069 | -1.24 ± 0.11
GUAAAGCAAUAUUACGGUAU | -0.495 ± 0.059 | 0.118 ± 0.084
GUAAAGCAAUAUUACGUACG | -0.843 ± 0.069 | -0.015 ± 0.1
GUAAAGCAAUAUUACGUAUA | -1.53 ± 0.11 | -0.524 ± 0.14

Sequence | self-splicing fitness (ln) (30 °C) | self-splicing fitness (ln) (37 °C)
GUAAAGCAAUAUUACGUCCU | 0.164 ± 0.11 | 0.663 ± 0.16
GUAAAGCAAUAUUACGUCGC | -1.35 ± 0.11 | -0.63 ± 0.13
GUAAAGCAAUAUUACGUCGU | -0.978 ± 0.091 | -0.114 ± 0.14
GUAAAGCAAUAUUACGUCUC | 0.704 ± 0.098 | 0.129 ± 0.11
GUAAAGCAAUAUUACGUUAC | -1.15 ± 0.14 | -1.91 ± 0.21
GUAAAGCAAUAUUACGUUUC | -2.07 ± 0.16 | -1.03 ± 0.22
GUACAGCAAUAUUACGACAG | -3.31 ± 0.24 | -1.94 ± 0.21
GUACAGCAAUAUUACGAUGG | -3.3 ± 0.17 | -2.48 ± 0.17
GUACAGCAAUAUUACGAUUC | -0.318 ± 0.075 | -0.0725 ± 0.11
GUACAGCAAUAUUACGCAAU | -2.58 ± 0.21 | -1.87 ± 0.27
GUACAGCAAUAUUACGCCAU | -3.46 ± 0.23 | -2.32 ± 0.15
GUACAGCAAUAUUACGCGAG | -1.73 ± 0.094 | -1.85 ± 0.12
GUACAGCAAUAUUACGCUAC |  | -2.64 ± 0.48
GUACAGCAAUAUUACGCUAG | -1.88 ± 0.12 | -0.374 ± 0.12
GUACAGCAAUAUUACGCUAU | -3.82 ± 0.29 | -1.77 ± 0.2
GUACAGCAAUAUUACGCUUC | -2.54 ± 0.19 | -2.69 ± 0.26
GUACAGCAAUAUUACGGCCC | -0.268 ± 0.088 | -0.155 ± 0.11
GUACAGCAAUAUUACGGUAU | -4.07 ± 0.18 | -2.45 ± 0.16
GUACAGCAAUAUUACGGUCU | -0.535 ± 0.084 | -0.00413 ± 0.11
GUACAGCAAUAUUACGUACA | -3 ± 0.15 | -1.63 ± 0.098
GUACAGCAAUAUUACGUAGG | -2.79 ± 0.15 | -0.471 ± 0.12
GUACAGCAAUAUUACGUCAU | -1.7 ± 0.09 | -1.13 ± 0.11
GUACAGCAAUAUUACGUUGC | -3.96 ± 0.13 | -3.05 ± 0.14
GUACAGCAAUAUUACGUUUA | -2.62 ± 0.15 | -1.89 ± 0.11
GUACAGCAAUAUUACGUUUG | -3.06 ± 0.13 | -2.59 ± 0.17

Sequence | self-splicing fitness (ln) (30 °C) | self-splicing fitness (ln) (37 °C)
GUAGAGCAAUAUUACGAAAU | -1 ± 0.15 | -1.21 ± 0.17
GUAGAGCAAUAUUACGAACU | -1.19 ± 0.23 | -0.867 ± 0.24
GUAGAGCAAUAUUACGAAGA | -3.65 ± 0.29 | -2.22 ± 0.43
GUAGAGCAAUAUUACGCAAC | -1.79 ± 0.24 | -0.94 ± 0.39
GUAGAGCAAUAUUACGCACA | -0.23 ± 0.14 | -0.117 ± 0.14
GUAGAGCAAUAUUACGCAGU | -1.39 ± 0.11 | -1.45 ± 0.17
GUAGAGCAAUAUUACGCGCA | -0.299 ± 0.1 | 0.0346 ± 0.13
GUAGAGCAAUAUUACGCGUC | -0.836 ± 0.18 | -0.0736 ± 0.22
GUAGAGCAAUAUUACGGCGG | -1.86 ± 0.12 | -1.99 ± 0.18
GUAGAGCAAUAUUACGGGAC | -1.46 ± 0.2 | -1.13 ± 0.15
GUAGAGCAAUAUUACGGUGU | -1.82 ± 0.081 | -1.23 ± 0.099
GUAGAGCAAUAUUACGGUUC | -1.84 ± 0.11 | -0.825 ± 0.14
GUAGAGCAAUAUUACGGUUG | -2.62 ± 0.15 | -1.13 ± 0.22
GUAGAGCAAUAUUACGUAAG | -2.29 ± 0.26 | -0.825 ± 0.27
GUAGAGCAAUAUUACGUACG | -1.92 ± 0.19 | -1.35 ± 0.35
GUAGAGCAAUAUUACGUAUU | -2.43 ± 0.12 | -1.42 ± 0.13
GUAGAGCAAUAUUACGUCCG | -2.26 ± 0.27 | -2.49 ± 0.49
GUAGAGCAAUAUUACGUUGA | -2.98 ± 0.2 | -0.879 ± 0.17
GUAUAGCAAUAUUACGAAAC |  | -1.02 ± 0.49
GUAUAGCAAUAUUACGAACC | -2.63 ± 0.43 | -0.238 ± 0.23
GUAUAGCAAUAUUACGAAGA | -3.64 ± 0.47 | -0.936 ± 0.23
GUAUAGCAAUAUUACGACAA | -0.741 ± 0.27 | -1.34 ± 0.3
GUAUAGCAAUAUUACGACGU | -0.443 ± 0.069 | 0.436 ± 0.092
GUAUAGCAAUAUUACGACUA | -0.438 ± 0.21 | 0.00698 ± 0.23
GUAUAGCAAUAUUACGACUC | -0.23 ± 0.14 | 0.0743 ± 0.23

Sequence | self-splicing fitness (ln) (30 °C) | self-splicing fitness (ln) (37 °C)
GUAUAGCAAUAUUACGAGGA | -2.45 ± 0.26 | -2.66 ± 0.38
GUAUAGCAAUAUUACGAGGC | -2.1 ± 0.33 | -2.18 ± 0.47
GUAUAGCAAUAUUACGAGGU | -2.99 ± 0.26 | -0.619 ± 0.28
GUAUAGCAAUAUUACGAUGG | -3.43 ± 0.35 | -0.958 ± 0.24
GUAUAGCAAUAUUACGCAAC | -2.53 ± 0.37 | 
GUAUAGCAAUAUUACGCACC | -1.85 ± 0.17 | -1.66 ± 0.27
GUAUAGCAAUAUUACGCAGU |  | -2.33 ± 0.37
GUAUAGCAAUAUUACGCAUC | -2.15 ± 0.17 | -0.982 ± 0.13
GUAUAGCAAUAUUACGCCGG | -2.45 ± 0.37 | -1.59 ± 0.35
GUAUAGCAAUAUUACGCGUG | -2.13 ± 0.18 | -0.201 ± 0.14
GUAUAGCAAUAUUACGCUCA |  | -0.615 ± 0.36
GUAUAGCAAUAUUACGGAGU | -3.8 ± 0.3 | -3.49 ± 0.29
GUAUAGCAAUAUUACGGCCU | -1.29 ± 0.12 | -0.582 ± 0.16
GUAUAGCAAUAUUACGGUAA | -2.59 ± 0.23 | -1.24 ± 0.15
GUAUAGCAAUAUUACGGUAC |  | -2.25 ± 0.33
GUAUAGCAAUAUUACGUAAG | -1.48 ± 0.13 | -0.567 ± 0.14
GUAUAGCAAUAUUACGUUCG | -2.09 ± 0.21 | -1.53 ± 0.19
GUAUAGCAAUAUUACGUUUA | -2.74 ± 0.19 | -1.52 ± 0.17
GUCAAGCAAUAUUACGAAAU | -2.14 ± 0.13 | -0.595 ± 0.12
GUCAAGCAAUAUUACGAACA | -2.25 ± 0.22 | -1.24 ± 0.19
GUCAAGCAAUAUUACGACUA | -3.5 ± 0.18 | -2.03 ± 0.12
GUCAAGCAAUAUUACGCAGU | -3.31 ± 0.33 | -1.16 ± 0.19
